Laboratory results taken from publication PMC9322661.

Molecular target: Taxol-stabilized microtubules (porcine brain tubulin) (porcine)
Assay: TIRF single-molecule motility assay

Sequence of Taxol-stabilized microtubules (porcine brain tubulin) (porcine) (P02550 whole entry, chain 1 of 2): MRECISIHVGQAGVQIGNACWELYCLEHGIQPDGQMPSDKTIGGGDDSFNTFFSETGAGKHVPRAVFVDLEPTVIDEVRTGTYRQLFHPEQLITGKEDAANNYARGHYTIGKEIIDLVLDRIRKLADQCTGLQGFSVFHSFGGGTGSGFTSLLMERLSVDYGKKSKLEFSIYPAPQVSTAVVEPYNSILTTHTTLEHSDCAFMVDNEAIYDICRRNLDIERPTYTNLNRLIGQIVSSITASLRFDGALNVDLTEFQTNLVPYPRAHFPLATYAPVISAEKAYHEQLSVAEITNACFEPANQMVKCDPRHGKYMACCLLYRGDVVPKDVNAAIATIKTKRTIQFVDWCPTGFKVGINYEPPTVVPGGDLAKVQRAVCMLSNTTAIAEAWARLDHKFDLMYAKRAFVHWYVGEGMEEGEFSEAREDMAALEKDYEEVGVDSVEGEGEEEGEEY
Sequence of Taxol-stabilized microtubules (porcine brain tubulin) (porcine) (P02554 whole entry, chain 2 of 2, further chain): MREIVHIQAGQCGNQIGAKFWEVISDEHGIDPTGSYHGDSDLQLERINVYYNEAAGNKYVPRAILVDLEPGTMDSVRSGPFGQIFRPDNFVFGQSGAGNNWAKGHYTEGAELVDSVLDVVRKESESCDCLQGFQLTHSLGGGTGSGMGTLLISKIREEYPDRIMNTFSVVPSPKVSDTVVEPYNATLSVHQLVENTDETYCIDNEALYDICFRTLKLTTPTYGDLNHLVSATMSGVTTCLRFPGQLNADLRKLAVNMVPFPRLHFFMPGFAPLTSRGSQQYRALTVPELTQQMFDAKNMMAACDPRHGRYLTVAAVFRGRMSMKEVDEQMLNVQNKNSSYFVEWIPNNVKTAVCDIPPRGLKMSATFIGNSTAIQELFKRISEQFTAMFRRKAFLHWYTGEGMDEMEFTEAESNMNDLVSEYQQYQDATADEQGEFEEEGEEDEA

Work on “full-length KIF5A(∆exon27)::mSca (from UniProt Q12840 1-1032) (natural protein)” yielded a landing rate (motors/μm/s/μM) of 8.3.
